The values that follow are results of earlier work, collected in patent US6063755A, “Intestinal trefoil proteins” (The General Hospital Corporation, priority 1995, dated 2000).

For data set [1] the following is noted: laboratory animal; parenteral as well as oral administration.
The conditions of data set [2]: laboratory animal; parenteral as well as oral administration. This is another data set of the same source.

B1: PSP: porcine pancreatic peptide, pancreatic spasmolytic peptide; thought to include two trefoils (protein)
chain: EKPAACRCSRQDPKNRVNCGFPGITSDQCFTSGCCFDSQVPGVPWCFKPLPAQESEECVMEV
For B1, in data set [1], the gastrointestinal motility entry is given as “inhibit”. Also, the gastric acid secretion entry in data set [2] is “inhibit”.
